The assay concerns the target T1, CXCR4 (UniProt P61073 1-352).
T1 construct: whole, on cells; also called X4
The assay can be described thus: western blot binding assay on CXCR4-transfected cells. In general terms: In western blotting, separated proteins are transferred to a membrane and probed.

T1 sequence (P61073 whole entry): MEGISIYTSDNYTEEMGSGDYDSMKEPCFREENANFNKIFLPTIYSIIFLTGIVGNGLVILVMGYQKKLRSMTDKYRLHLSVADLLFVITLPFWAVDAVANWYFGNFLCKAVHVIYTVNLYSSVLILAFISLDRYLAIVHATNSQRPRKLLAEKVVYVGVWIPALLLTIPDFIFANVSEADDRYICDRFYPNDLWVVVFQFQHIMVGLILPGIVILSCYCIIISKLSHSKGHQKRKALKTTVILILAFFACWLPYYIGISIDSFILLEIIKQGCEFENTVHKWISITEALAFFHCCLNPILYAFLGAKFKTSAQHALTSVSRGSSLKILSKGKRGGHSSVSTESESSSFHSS

B1: HIV-2/VCP gp120 (other)
chain: KQFVTVFYGIPAWRNASIPLFCATKNRDTWGTIQCLPDNDDYQEIALNVTEAFDAWNNTVTEQAVEDVWNLFETSIKPCVKLTPLCVAMNCTRNMTTSTGTTDTQNITIINDTSPCVRADNCTGLKEEEMVDCQFNMTGLERDKRKQYTEAWYSKDVICDNNTSSRSKCYMNHCNTSVITESCDKHYWDAMRFRYCAPPGFALLRCNDTNYSGFAPNCSKVVAATCTRMMETQSSTWFGFNGTRAENRTYIYWHGKNNRTIISLNNFYNLTMHCKRPGNKTVLPIMSGFKFHSKPVINKKPRQAWCWFKGEWKEAMQEVKETLAKHPRYKGNRSRTENIKFKAPGRGSDPEAAYMWTNCRGEFLYCNMTWFLNWVDNRTGQKQRNYAPCHIRQIINTWHRVGKNVYLPPREGELTCNSTVTSIIANIDTGDQTDITFSAEVAELYRLELGDYKLVEITPIGFAPTSVKRYSSAHQRHTR
notes: also called gp120 Env of HIV-2/VCP
For the molecule B1, the binding result is listed as “binds”.

Values taken from US20050064392A1 (TRUSTEES OF THE UNIVERSITY OF PENNYLVANIA, published 2005).
